# Data as given in patent US20250270339A1 (Alector, published 2025).
# Numbering of substitutions follows the chain as printed.
# T1: huTfR Apical Domain-Avi-His (human, biotin on the Avi tag (BirA) where captured on streptavidin)
# T1 construct: also called huTfR apical Avi-His; hTfR Apical
# T1 chain: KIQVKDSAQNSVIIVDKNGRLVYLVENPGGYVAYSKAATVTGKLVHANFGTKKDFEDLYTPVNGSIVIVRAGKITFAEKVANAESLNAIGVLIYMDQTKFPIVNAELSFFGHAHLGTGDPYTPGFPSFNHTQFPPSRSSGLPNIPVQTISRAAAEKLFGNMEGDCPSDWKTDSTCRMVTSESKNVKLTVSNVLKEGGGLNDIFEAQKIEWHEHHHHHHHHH
# B1: TfR4 (mouse hybridoma antibody) (antibody, V domains shown)
# VH: QVQLQQSGAELVRPGTSVKVSCKASGYAFTNYLIEWVKQRPGQGLEWIGVINPGSGGTTYNEKFKGKATLTADKSSSTAYMQLSGLTSDDSAVYFCARRSPYFDYWGQGTTLTVSS
# VL: SIVMTQTPKFLLVSAGDRVTITCKASQSVSNDVAWYQQKPGQSPKLLIYYASNRYTGVPDRFTGSGYGTDFTFTISTVQAEDLAVYFCHQDYISPTFGGGTKLEIK
# notes: mouse IgG in hybridoma supernatant
# B2: TfR18 (mouse hybridoma antibody) (antibody, V domains shown)
# VH: B1 VH with V37I, S55N, G56N, G57D, K63M, G66A, A68T, S77N, G85S
# VL: B1 VL with I93S
# notes: as for B1
# B3: TfR8 (mouse hybridoma antibody) (antibody, V domains shown)
# VH: B1 VH with T59N, G85S
# VL: B1 VL
# notes: as for B1
# B4: TfR2 (mouse hybridoma antibody) (antibody, V domains shown)
# VH: EVQLQQSGPELVKPGASVKISCKASGYTFTDYNMHWVKQSHGKSLEWIGYIYPYNGGTGYNQKFKSKATLTVDNSSSTAYMELRSLTSEDSAVYYCATLYDGYYFDYWGQGTTLTVSS
# VL: DILLTQSPAILSVSPGERVSFSCRASQSIGTSIHWYQQRTNGSPRLLIKYASESISGIPSRFSGSGSGTDFTLSINNVESEDIADYYCQQSNSWPFTFGSGTKLEIK
# notes: as for B1
# B5: TfR1 (mouse hybridoma antibody) (antibody, V domains shown)
# VH: QVQLQQSGPELVKPGASVKMSCKASGYTFTNYYIHWVKQRPGQGLEWIGWIYPGDGSTKYNEKFKGKTTLTADKSSSTAYMLLSSLTSEDSAIYFCARDGSSAPKFTYWGQGTLVTVSA
# VL: DIVMTQSPSSLTVTAGEKVTMRCKSSQSLLNSGNQKNYLTWYQQKPGQPPKLLIYWASTRESGVPDRFTGSGSGTDFTLTISSVQAEDLAVYYCQNDYSYPLTFGAGTKLELK
# notes: as for B1
# B6: TfR3 (mouse hybridoma antibody) (antibody, V domains shown)
# VH: QVQLRQSGPELVKPGASVRISCKASGYTFTSFYIHWVKQRPGQGLEWIGWIYPGDVNTHYSDKFKGKATLTADKSSSTAYMQLSSLTSEDSAVYFCAREGYGYFAYWGQGTLVTVSA
# VL: B5 VL with R22S, S71V, A106S
# notes: as for B1
# B7: TfR5 (mouse hybridoma antibody) (antibody, V domains shown)
# VH: B5 VH with S57N, K59N
# VL: B5 VL with I54F
# notes: as for B1
# B8: TfR30 (mouse hybridoma antibody) (antibody, V domains shown)
# VH: QVQLQQSGPQLVRPGASVKISCKASGYSFTNYWLHWVKQRPGQGLEWIGMIDPSDSETRLNQKFKDKATLTVDKSSSTAYMQLSSPTSEDSAVYYCARWGGGYYGFAYWGQGTLVTVSA
# VL: DIVMTQSQKFMSTSVGDRVSITCKASQNVRTAVAWYQQKPGQSPKALIYLASNRHTGVPDRFTGSGSGTDFTLTISNVQSEDLADYFCLQHWNYPWTFGGGTKLEIK
# notes: as for B1
# Molecular target: T2, Full length human TfR on CHO cells (human, UniProt P02786 1-760)
# T2 construct: also called CHO + huTfR; CHO + hTfR
# Experiment: FACS MFI, supernatant
# Procedure: (§1) A total of 1536 anti-TfR hybridoma supernatants were initially screened for their ability to differentially bind CHO cells overexpressing human or mouse TfR cells compared to CHO parental cells by FACS. Overexpressing cells were harvested, washed and labeled with Pacific Blue, FITC and Pacific Orange dyes (ThermoFisher) to create uniquely barcoded cell populations. Barcoded cells (5×10⁴ of each cell population) were aliquoted into 96-well U-bottom plates and incubated with 50 μl of hybridoma cell culture supernatant or […] of commercially available purified mouse anti-human TfR monoclonal antibody (Sigma Aldrich, Cat #SAB4700515) and rat anti-mouse TfR antibody (Invitrogen, Waltham, MA, Cat #R17217) on ice for 30 minutes. After this primary incubation, the supernatants were removed via centrifugation, the cells were washed twice with 175 μl of ice-cold FACS buffer (PBS+1% FBS+2 mM EDTA), and the cells were then further incubated on ice for 20 minutes with anti-mouse IgG Fc-allophycocyanin (APC) or anti-rat IgG Fc-APC (Jackson Labs, Cat #115-136-071 and Cat #112-136-071, respectively) (diluted 1:1000). Following this secondary antibody incubation, the cells were again washed twice with ice-cold FACS buffer and resuspended in a final volume of 50 μl of FACS buffer. Binding intensity on cells was analyzed using the FACS Canto system (BD Biosciences), and the ratio of APC Mean Fluorescence Intensity (MFI) on each barcoded cell population was determined for each anti-TfR hybridoma supernatant tested.
# T2 sequence (P02786 whole entry): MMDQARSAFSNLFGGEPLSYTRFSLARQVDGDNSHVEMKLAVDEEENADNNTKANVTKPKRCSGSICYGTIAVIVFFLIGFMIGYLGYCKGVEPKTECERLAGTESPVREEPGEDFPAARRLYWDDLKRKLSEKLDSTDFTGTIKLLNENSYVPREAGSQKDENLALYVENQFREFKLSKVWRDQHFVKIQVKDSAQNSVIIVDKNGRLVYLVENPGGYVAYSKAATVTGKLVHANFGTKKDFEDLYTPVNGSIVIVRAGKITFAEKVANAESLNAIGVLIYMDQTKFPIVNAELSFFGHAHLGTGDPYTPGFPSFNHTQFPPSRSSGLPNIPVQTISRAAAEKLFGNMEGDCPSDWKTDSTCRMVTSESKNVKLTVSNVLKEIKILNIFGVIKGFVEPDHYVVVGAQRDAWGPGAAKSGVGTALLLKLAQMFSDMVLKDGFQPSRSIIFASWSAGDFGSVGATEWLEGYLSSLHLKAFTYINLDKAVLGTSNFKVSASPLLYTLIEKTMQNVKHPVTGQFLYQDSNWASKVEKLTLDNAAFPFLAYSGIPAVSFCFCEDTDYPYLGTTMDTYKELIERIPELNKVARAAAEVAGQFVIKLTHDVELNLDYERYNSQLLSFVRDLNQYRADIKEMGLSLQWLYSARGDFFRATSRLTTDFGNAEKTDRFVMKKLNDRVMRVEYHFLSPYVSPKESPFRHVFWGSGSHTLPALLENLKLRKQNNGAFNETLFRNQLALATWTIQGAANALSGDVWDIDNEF
row,fold over parental (CHO WT) [fold],Binder
1,61,B1
2,75,B2
3,215,B3
4,458,B4
5,228,B5
6,38,B6
7,561,B7
8,169,B8

# Molecular target: T3, Full length Mouse TfR on CHO cells (mouse, UniProt Q62351 1-763)
# T3 construct: also called CHO + muTfR
# Experiment: FACS MFI, supernatant
# Procedure: as §1
# T3 sequence (Q62351 whole entry): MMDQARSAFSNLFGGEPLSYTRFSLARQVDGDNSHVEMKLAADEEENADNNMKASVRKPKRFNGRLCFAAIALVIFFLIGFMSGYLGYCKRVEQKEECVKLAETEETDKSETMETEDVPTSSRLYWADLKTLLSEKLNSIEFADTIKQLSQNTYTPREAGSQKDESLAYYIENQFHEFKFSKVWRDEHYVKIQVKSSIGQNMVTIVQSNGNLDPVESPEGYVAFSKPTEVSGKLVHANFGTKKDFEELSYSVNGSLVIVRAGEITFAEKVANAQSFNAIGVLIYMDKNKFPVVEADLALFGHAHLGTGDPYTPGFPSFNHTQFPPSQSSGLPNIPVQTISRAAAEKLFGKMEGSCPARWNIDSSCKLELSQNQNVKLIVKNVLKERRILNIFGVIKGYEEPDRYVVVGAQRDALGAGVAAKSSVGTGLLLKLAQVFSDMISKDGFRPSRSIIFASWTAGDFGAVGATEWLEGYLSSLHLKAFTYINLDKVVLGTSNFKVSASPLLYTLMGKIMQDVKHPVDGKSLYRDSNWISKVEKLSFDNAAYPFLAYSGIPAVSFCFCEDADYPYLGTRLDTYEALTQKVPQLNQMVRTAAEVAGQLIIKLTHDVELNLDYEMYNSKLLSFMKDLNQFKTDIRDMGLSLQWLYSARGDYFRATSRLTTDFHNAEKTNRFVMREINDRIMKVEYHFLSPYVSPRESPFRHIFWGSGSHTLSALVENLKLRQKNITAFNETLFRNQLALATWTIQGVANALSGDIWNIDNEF
row,fold over parental (CHO WT) [fold],Binder
1,1,B1
2,1,B2
3,1,B3
4,1,B4
5,1,B5
6,1,B6
7,1,B7
8,1,B8

# Molecular target: T3, Full length Mouse TfR on CHO cells
# Experiment: FACS, CHO+muTfR
# Procedure: as §1
row,binding result,Binder
1,no binding,B1
2,no binding,B2
3,no binding,B3
4,no binding,B4
5,no binding,B5
6,no binding,B6
7,no binding,B7

# Molecular target: T1, huTfR Apical Domain-Avi-His
# Experiment: ELISA OD450, supernatant
# Procedure: Hybridoma culture supernatants from 319 hybridomas obtained as described above were screened for their ability to bind Avi-His-tagged huTfR ECD, huTfR apical domain, and muTfR ECD (as described in Example 1) as compared to binding to an irrelevant Avi-His-tagged control protein. Briefly, 96-well polystyrene plates were coated with 5 μg/ml of streptavidin (Thermo Fisher, Cat #PI21125) in coating buffer (0.05M carbonate buffer, pH 9.6, Sigma, Cat #C3041) overnight at 4° C. Coated plates were then blocked with ELISA diluent (PBS+0.5% BSA+0.05% Tween20) for one hour. Blocking buffer was removed and Avi-His-tagged human TfR, human TfR apical domain, mouse TfR and an irrelevant Avi-His-tagged protein were added at 1 μg/ml in ELISA diluent and captured for 1 hour at room temperature. After washing three times with 300 μl of PBST (PBS+0.05% Tween20, Thermo 28352), the hybridoma cell culture supernatants were added (50 μl/well) to each well. After 30 minutes of incubation at room temperature, the plates were washed three times with 300 μl of PBST. Anti-mouse IgG Fc-HRP or anti-rat IgG Fc-HRP (Jackson Immunoresearch, Cat #115-035-071 and 112-036-071, respectively) secondary antibodies were diluted 1:5000 in ELISA diluent, added to each well at 50 μl/well, and incubated for 30 minutes at room temperature with shaking. After a final set of washes (3×300 μl in PBST), 50 μl/well of BioFx TMB substrate (Surmodics, Cat #TMBW-1000-01) was added to the wells. The reaction was then quenched after 5-10 mins with 50 μl/well of 2N sulfuric acid. The plates were read for absorbance at 450 nm on a SpectraMax M5 (Molecular Devices, Sunnyvale, CA) using SoftMax Pro software.
row,ratio over irrelevant protein [fold],Binder
1,42,B1
2,32,B2
3,37,B3
4,5,B4
5,22,B5
6,37,B6
7,15,B7
8,29,B8
